Reference: FireProtDB (doi:10.1021/bi992119u)

Conditions: Pseudomonas putida; pH 7; 25 °C; Urea; CD; Sodium phosphate 25 mM; reversible: yes; whole UniProt chain shown

B1: Steroid Delta-isomerase wild type, P07445 (protein)
chain: MNLPTAQEVQGLMARYIELVDVGDIEAIVQMYADDATVEDPFGQPPIHGREQIAAFYRQGLGGGKVRACLTGPVRASHNGCGAMPFRVEMVWNGQPCALDVIDVMRFDEHGRIQTMQAYWSEVNLSVREPQ
For B1, the denaturant m value was 3.39 kcal/mol/M, the “denaturant midpoint (higher = more stable)” value was 5.22 M and the unfolding free energy was 24.3 kcal/mol.
